Test: soluble on expression in E. coli; label from the status in PepcDB or PDB records
In the case of “MVKLDDKNKKFKGKKKVKNVLEKKAKGLKLNKVDRKRIVKIEEKAALKSKVDKAVKDELERLKKSSSTSVFDNDGTRDSLCSESSFGSQPAPKKKSKKVLFSGELEHVKVFDKRVQDLQIKPSEASPGRGILRSPLDKKVKKLAKVKTVKVAQEEEEEHSAPPKKKVKVNAEKAVASEPADDENLESVDEQAGGDESHIDIPTLKRKRVAIQVTKSVKEQLLNMPRKERKAFLKELKLKRKPEGARAQKCKELWEKIRMGKTPKAEKDTAVHELYGLVKGHAAKLIYAHDTSRVIECLVATEREGIINNLFNELTPEIVRMSKNVYSKFFVKKMLKNGTKEQRDIIINAFRGHAPTLLRIKHAAEVLEYAYNDFANAHQRYNIITEFYGKEFILFREDNIRSLTEILAEKPEKKVVILKHLDEVIGAVNEKETLRLSILHKLMLDFFDNCDEEKKINLLDSLKDKIPEFIHTPDGAKLAIKLIWFAPVKERKLIVKNFKDLSVKAAMEHYGHRVLLALFDTVDDTVLLNKVIVSELANEMKKLIEDDWGEKVIHYLVHPRDGRGIDKREITFLAEGDSNPHSKKTQKDRYGQLYAGITENLYPYLAANFEELVFEANKSKFVAACLETTSSFDLFDRQVPAEARKSCNQAIVELAKKDFVPMDQEGFHIIEHQSGNFILMAVMRCDAALQEDERLSVALAEGLTSKQLGSWVTCNRGCHVLLKMLQVGGPKVIEKLKASISRKHLDGYNSKGANLLKAQLDGNVKK”, the “soluble on expression in E. coli” value is reported as “soluble”.
For “MVKLMEVYEGKAKKMIPIDDDKLIMEFKDDATAFDGTKKARFKGKGWLNAQLSVIFFKLLEEHGIKTHFIGVAGGNRLIVEKLDMYPLEVVVRNVVAGSLKKRLPLPEGYELPEPIVELYYKNDELHDPMINYYHAKVLGISLDEIKKIEEIALKVNEILKDYLAKKGIILVDFKLEFGKDKNGDIVLADEISPDTCRFWDAKTKRSLDKDVFRFDKGDLIEAYKEIYERITGEKPEF”, the “soluble on expression in E. coli” value was “soluble”.
With “MVKSFLMLGQSNMAGRGFINEVPMIYNERIQMLRNGRWQMMTEPINYDRPVSGISLAGSFADAWSQKNQEDIIGLIPCAEGGSSIDEWALDGVLFRHALTEAKFAMESSELTGILWHQGESDSLNGNYKVYYKKLLLIIEALRKELNVPDIPIIIGGLGDFLGKERFGKGCTEYNFINKELQKFAFEQDNCYFVTASGLTCNPDGIHIDAISQRKFGLRYFEAFFNRKHVLEPLINENELLNLNYARTHTKAEKIYIKSMDFALGKISYDEFTSELMKINNDLEHHHHHH” the “soluble on expression in E. coli” value was “soluble”.
With “MVKVYIHDNKVDSDYRAPHNSGTELSLDELAKLGVIYKYCANEEEVNEIARQREYKNRDVVNICEGSFKSEAEFNEKLATFYQEHLHEDEEIRYCLEGAGYFDVRDASTPENWIRCLVESGDLLILPPGIYHRFTLTTSNHIKALRLFKDEPKWQAINRSNQADSLPVRKDYIALINQY” the “soluble on expression in E. coli” value was “soluble”.
With “MVLDRQHLGVTKSRCIVWGVAFLSDGTVISVDSVGKVQLWDSATGTLVKSHLVANADVQSIAVADQEDSFVVGTAEGTVFHFQLVSMTSNSSEKQWVRTKPFQHHTHDVRAVAHSPTALISGGTDTHLVIRPLMERVEVKNYDAALRKITFPHRRLISCSKRRQLLLFQFAHHLELWRLGSTSATGKNGDTLPLSKNADHLLHLKTKGPENIICSCVSPCGSWIAYSTASRFFLYRLKYERDNISLQRVSKLPSFLRSALHILFSEDSTKLLVASNQGSLHIVHLSEGSFKHLHTFQPQSGTVEAMCLLAVSPDGNWLAASGTSAGVHVYDLHHLKLHCTVPAYNFPVTALAIAPNTNNLVIAHSDQQVFEFSIPEKQYTEWSRSLQKQGFHQLWLQRDTPITHISFHPKRPMHILLHDAYMFCIIDKSLPLPNEKTVLYNPLPPKNESDVFLRRTTHGFKMSKIYKPLLFMDLLDERTLVAVERPLDDIIAQLPPPIKKKKFGT” the “soluble on expression in E. coli” value was “not soluble”.
With “MVLILNGPNLNLLGRREPEVYGRTTLEELEALCEAWGAELGLGVVFRQTNYEGQLIEWVQQAHQEGFLAIVLNPGALTHYSYALLDAIRAQPLPVVEVHLTNLHAREEFRRHSVTAPACRGIVSGFGPLSYKLALVYLAETLEVGGEGF” the “soluble on expression in E. coli” value was “soluble”.
With “MVLKSKGSVLDLEHDNQTLKDYISVFERNKMRLTQSRLMLLQCLVQHRDWHTLAELKHHLEQNQQRTTLASIYNNLKIFAKLKLINIFVDTNRFETYYCLRHENHKHIYFFDENQRKFLTLPLQDKEALSLIGHKSKHGKIKLNDFYIVASGTLEDDQ” the “soluble on expression in E. coli” value was “soluble”.
For “MVLSVADAKKLTVPRLKEELASRGLDNTGNKPELLARLTESIEQAADELLGDAGITSDTHLLSDDILNDDILDAPSVGDESEADKLLGSVDGAEEHKTDKSEGEEKHEVHLIDKKIDEVTAETDKRARAIRFGLPVTAEDLGSDGAKAARAKRFDLPEDSKRLTSNDAKASRAERFGITPKTPAADDKLAARAARFGIPVGGAASASASKNAPNSEGKAAKLAARAKRFGGEIDDEEMEAKKKARMERFGTSN”, the “soluble on expression in E. coli” value was “not soluble”.
For “MVMVNFVKAGCSRWRCMLAKDTCIFTTFQMVPVSLCCCSYDRCNVGGNPVYSDNPKQIQNGGGNSGNWNSGGNNNGASGGSWGNGNANNNNNNNNGGSNNNGWGNNNDWSSNYNYGGSNAANEPKMTKQTVAGDDSWNKNKWTNKQVEDMFKKSIDDRGDEIQLEDDFKKIDKNYKTQSVPQESLRTLSARKEVEKIPFVAGKSSGVGAKTTASPTTGKSKEIQL”, the “soluble on expression in E. coli” value was “not soluble”.
With “MVMWVFGYGSLVWNPGFHYDEKVLGFIKGYKRVFDLACIDHRGTPEHPARTCTLEKAEEAICWGTAFCVRGGPEKERLAMEEDDPLKPAVTGVIVFTSTPDKVSNKYYLGPAPLEDMARFLSSHLAVILYIQRQIATANGPCGNNRDYLFLLEKAMHDIGFVVKGSDLDGFKRDIVFDVLSHFLFHTGHEEDYVIELANEVRKVLAESSTKKVTPVKESRASRVANKSKNNVPTAHQILPHHPEAVATTI” the “soluble on expression in E. coli” value was “soluble”.
With “MVNFFRLNLSSNQAAAVTVSETAELPEALEQLGLSNSRPVLVIVGGASQTSEADFLRIQSLFVEVLAPIAQSLGAYVVDGGTDAGVMRLMGDARSQINGQFPLIGVAPTAKVILPNQTTILADDATPLEPHHSHFVLIPGSKWGDESPWIVKVATLLANGLPSITVLINGGEISFIDALNSVIAGRLVIVIAGSGRTADKIASALRGYATDERATELAASDHIQTIDLEAAPEELIDTMTNLLLNLEHHHHHH” the “soluble on expression in E. coli” value was “not soluble”.
In the case of “MVNKEHFSKKFDADLEEIRTRVLQMGGLVEEQIKNAIEALTEGNEHMIEQVIDNDHRVNAMEVKIDELCSQIIVRRQPTAIDLRMIMTVINTITDLERIGDEAAKIARMAKLIYAADRMYTPRFVEIRHIAAIAMDMLRKALDAFARVDPNASAEIVRQDEQVDEEFRSIIRHLVTFMMEDPRKISTAIEILFAAKAVERIGDHAKNMSEYVVYMVKGKDVRHVSADEIEREVGK”, the “soluble on expression in E. coli” value is reported as “not soluble”.
In the case of “MVNSDIREQLRPFFEPKAVAIIGATNKKGKVGNVIFENFKKNKEKGIFKGNIYPVNPKLDEIEGYKVYHDVSELPDDTDLAVIAIPAPAVPETMRKIGEKGIKSVIIITGGFGELGEEGKRMEQEILEIARANGIRVIGPNCVGVYVPDTGVDTVFLPDEKMDRPPSGPIAFISQSGAFAAAMLDWAAMAGIGIGKMVSYGNKIDVDDADLMEYFAHDDEIKVMTFYIEGVKDGRKFMETAKRVTKIKPIIALKSGRTEYGAKAASSHTGSLAGQDVIYDAVFKQTGIIRAEDFEHMFDLAKAFAKCKLPKGDRIGIITDGGGAGVMASDAVAKFGLKLAELSEETIKFLRERFPPHAVVGNPTDVVGDTDAERYRLALEAFTKDPNVDAILLIVLFQVPLLDEEEVINIITDYAKKSDKPIVVVSMGGYKTDKYARMLEERGIPVYPTPERGVRALAGLVRYAKYIRGNGE”, the “soluble on expression in E. coli” value is reported as “soluble”.
In the case of “MVPPNDEIEDGFYLIDDSNHDEDLDFSDFPWLDPDHPLFFPATQANNSKGSTRWDAVNKFSVENWYPHLRKHTFKSHFITLNYNDIHYLMGNIPPDYDSSKLESIFNKILSEFNNKEVFMRLSTRSPKDSKFLFEEASTIMSKDFVYWNENDNKHQQLVSFVASMLKAMKIKSGRKIIETIAQSPRVYNDLLALVSSSNQSDCTTNVILREWHDIRPDHEFRVFVSRRHRKESIVTAISQYFHFLYFDKSPADCFNFLDEEDKKAVIKKFENYVLKSVDPDVAKFLNFSSEQDDDESSDCIREYIVDLALIPVSQYHGEITDENIIEIGANTYVMVVIELNPFAPAATGSGLFNWKNDLEHHHHHH”, the “soluble on expression in E. coli” value is reported as “soluble”.
In the case of “MVPSFPFQRLPNKPFQNVLKSMSVGNLLSYSMCSEASKSHVTNLKVKINSFEINVTENVHLFVKSEHGPTFNFRTVTSANGNISDDVTPANENEKHRWYKKGFELRNWIEHFLSVLNHSKIDKLNFISQQGERSKNDYLRDSLEGFKVDCFTVQQCSESYQRSIFRNFSPINTFIICATGAESTKAISSALPHNLKDFGYVSRGATWNFSLDNLLLSNSRNLVVIEARFSFPDINMFLKHWLNGSNRRLTNAYFIYTTPLVSEDISKGLPFSIPSEAEISKLPSDLMEHRETMFQLKRKFDSTATIVLKQNNGKHVFNMFVEHF”, the “soluble on expression in E. coli” value is reported as “not soluble”.
With “MVPTTPFTIENTPVGRGNSGARSHKEPSAKRKKPTSTPTVRCGTVPQEPSTSAATVTQKPAGSTMATANITETRRIDISSCSDRPLIPCTASGVPLTTFSNKSLDSILNQDSEIVGGISQKDLNELRNRGPNMTVKQLLAKNFKNYKVRQSLTSELATEFVNRTLSENDVPMGALIMPPMEDVQESIVKESKTYNYAAASGGSLPFSNPHSEGILIRSPAIKGPHTLRDVLDSLGSVGTPAANQTLKDVLGSFNSQQPIDPTPSKTLKDVLGSLDLDNDYDLKLKMEGLDHDLKVESPTDAELGLDEFANQILSSKYKGTSLDTDHTAYPGNHLPWPVLWKNPVPKYIQGEIYCYVDGCTYSPMSEIIKSGKFMVPLDHPVEFIFKDRPILVTMEELLTANGINMSKAQHYRMLQGLLQKSGVHIRADYAERLHEFQALMDGLEIEDKPRPALKLSSDKLPLMCIYPDIYMNALGRRIHGAVIVDSSGVQETIGTRTLITRHQIAEFLLENPESPDSPDITTAPSKNSTIGDMMRPKSKIRRTHYVDLNKMVWRHFKDCQAAGIQINGKQLKDQAMRYAKDMGLESFRGSEGWLDAFKRRHRIDLKSMTGYPVCYENDMYEEVDKECRELDMESHMLHQQPPSFFPQSAPDEFAASFFSSLSGFPQQMVVQEPPTTSSSNHLQNMINSMMTPPVVDSRMMPSTSSAGASGASASSQEPDGGGDTIFNVMRSCQIKVADKEVSHALDTLRTYILEHDPAAMSLLVPLQERLATTSSGAIGRDMPSTSSSS” the “soluble on expression in E. coli” value was “soluble”.
With “MVPVRLPLFGPSRAEGPMGPLPLRRKALGILYYLALEGPTRRERLADLLWGHRVALQNLRSELTHLRSFFGKEAFRGPVLTLPPGVELDRTPGSGEAMEGLEDLSPAFADWVYGWRTRLAPGEEGTPFPKRLEAVRPPALVILIGPPGSGQESLAQALAQKLGLPLRHGLGEGAGVFYLSEPFPPKEVGLALKPLPGRVLVVARSSFGEDPSFLLALRTRFPAEVTVVEQVPCLSWREAVGGPLRHLPFAEAARFYLRSGGRVEVLRELLAMGNPEALPQRVRAMVALEARHLPWEARKALEVLALHPGPFPEKLAWILGYGEALDELEHRGWLLYCEGRYRFSEPQFRPYLTAGFGEGERCRLHARLAEAWEALGDPVAAAYHRFYGEKGEALKAAQLGSWRQALAAHPGPNVPLPRSRVRKGKKRALETEEIHLVSFQGEVAEAVLELEEPLLLHLQGEVYQELPLGLGANLEAFPFRLRSLKGEGAVYFLPRANPGYYPWGAVLPQENLDHEFLLRPGQYLLELGTPGVVSLRLQAWETAPGNQEILVPLEMTESL” the “soluble on expression in E. coli” value was “soluble”.
With “MVQESIISSFRGKLENDPSKSTSLATVETLLEVLDRSRATTVAEFQNELNQVVAALEKTDYSSTSIRSAADLFTRFTSLAPAALLDQEDFSQVLDLYRQRARSFIKNVRGSRAKISKCARLFFTHHMNILTHSYSKVVLETILDAHKSGYHLHVWVTESQPDASGKLVFEELKKNGVPTTLVLDSCVGYVMERIQAVLVGAEGVMETGGIINKIGTVNVCIIAKSRHVPVYVCAETIKFVREFPLNQADIPQEFKYRTSVIERNNLELEHPDVDYTAPEFLTLIITDVGAMKPEAVGEELIKMYI” the “soluble on expression in E. coli” value was “not soluble”.

— the DeepSol protein solubility set
